In patent US20230064196A1:

Columns and labels:
[1] = target: canine PD-1 (canine); assay: flow cytometry; row 1*10^5; Anti-mouse IgGFc-Alexa Fluor 647(1:500)
[2] = target: human BTLA (human) (UniProt Q7Z6A9); assay: as above
[3] = target: canine PD-1 (canine); assay: flow cytometry; row 1*10^3; Anti-mouse IgGFc-Alexa Fluor 647(1:500)
[4] = target: human BTLA (human) (UniProt Q7Z6A9); assay: as above
[5] = target: canine PD-1 (canine); assay: flow cytometry; row 1*10^4; Anti-mouse IgGFc-Alexa Fluor 647(1:500)
[6] = target: human BTLA (human) (UniProt Q7Z6A9); assay: as above

Sequence of UniProt Q7Z6A9 (Q7Z6A9 31-157 limits assumed): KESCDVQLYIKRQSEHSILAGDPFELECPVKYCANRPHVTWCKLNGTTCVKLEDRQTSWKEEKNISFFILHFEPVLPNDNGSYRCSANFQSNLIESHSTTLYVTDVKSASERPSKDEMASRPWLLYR

Q: What does the source list for NC?
A: percent of cells in the gate [1]: 0.273%; percent of cells in the gate [2]: 0.841%; percent of cells in the gate [3]: 0.155%; percent of cells in the gate [4]: 0.406%; percent of cells in the gate [5]: 0.068%; percent of cells in the gate [6]: 1.2%
